The text below walks through data of patent US20080242590A1, “New Method 706” (ASTRAZENECA AB, priority 2007, published 2008).

The subject of data set [1] is amyloid β 1-40 peptide. Briefly: Degradation of amyloid β 1-40 peptide by Fc-Neprilysin and Neprilysin in buffer. The data set is classed as biochemical. To be noted: 2.4 μg/ml, Aβ 1-40 300 nM, 2.5 hours at 37° C., buffer. As for the experimental part: The assay is measuring the remaining amyloid β 1-40 peptide (Bachem) concentration following its incubation in the presence of Neprilysin (R&D Systems) or Fc-Neprilysin with or without Neprilysin inhibitor. 100 μl of reaction mixture containing amyloid β 1-40 peptide (final concentrations, 300, 30 or 3 nM) and/or Neprilysin (2.4 μg/ml), and/or Fc-Neprilysin construct (2.4 μg/ml), and/or Phosphoramidone (10 μM) was incubated in a round bottom 96-well polypropylene plate at 37° C. for 2.5 hours. Following incubation, 10 μl of reaction mixture was transferred into Thermo-Fast© 96-well PCR plate (Abgene, UK) containing 10 μl of Standard Diluent (Gyros AB). Amyloid β 1-40 concentration was determined using Gyrolab Workstation LIF system. Biotinylated anti-amyloid β antibodies (6E10; final concentration 50 μg/ml; Signet) were used as capturing antibodies and polyclonal anti-human amyloid β antibodies (44-348; Biosource) labeled with Alexa Fluor 647 dye (Molecular probes) were used as detection antibodies. Amyloid β 1-40 peptide concentration measurement performed according to the manufacturers protocol using Gyrolab Bioaffy™ Software Package Version 1.8 (Gyros AB). Amyloid β 1-40 peptide degradation by Neprilysin was calculated as a percentage of Amyloid β 1-40 peptide left after incubation in the presence of Neprilysin compared to the amyloid β 1-40 peptide concentration in the absence of Neprilysin.

A short description of data set [2]: Pharmacokinetics of Fc-Nep and commercial neprilysin, single i.v. dose (Example 20). The data set is classed as in vivo. The conditions noted are these: mice, single i.v. dose 1 alternatively 5 mg/kg. As for the experimental part: (§1) The Fc-Nep fusion protein was developed to improve the pharmacokinetic entities of neprilysin with the specific aims to reduce clearance and improve half-life. To test this we have administrated a single i.v. dose of either 1 mg/kg commercial neprilysin or 1 alternatively 5 mg/kg in-house produced Fc-Nep to mice. At set times after dosing blood samples were drawn from the tail vein or by heart puncture at termination. Upon sampling into tubes containing EDTA the aliquots were put on ice. Plasma was prepared by centrifugation within 15 minutes of sampling (typically 1500 g at 4° C. for 10 min) and immediately frozen. Plasma concentrations of Fc-Nep and neprilysin were determined via immunoassays using either anti-Nep for commercial neprilysin or anti-human IgG for Fc-Nep as capture antibodies while both substances were detected via an anti-Nep antibody. Pharmacokinetic parameters are calculated using a software package (WinNonlin, Pharsight Corporation, USA) and in this example experiment the calculated half-life had increased from about 5 minutes for Nep to about 20 hours for Fc-Nep.

Data set [3] has as its system soluble Aβ42. Briefly: Soluble Aβ42 in plasma after acute i.v. treatment (Example 23). The data set is classed as in vivo, APPSWE-transgenic mice. As for the experimental part: The objective with this study was to evaluate the time and dose-response effect of Fc-Nep in plasma of female APPSWE-tg mice after acute intraveneous treatment. The specific purpose is to find an effect on plasma Aβ40 and Aβ42. The γ-secretase inhibitor M-550426 is included as a reference compound.
(§2) 25-31 weeks old female APPSWE-transgenic mice (10 mice/group) received vehicle or the Fc-Nep at 1 or 5 mg/kg as a single intravenous injections. As a reference compound, 300 μmol/kg of the γ-secretase inhibitor M-550426 was used and these animals was treated in 3 hours (4 mice). […] Blood was sampled from vehicle- and compound-treated animals at 1.5 and 3 hours after dose. Blood was withdrawn from anaesthetized mice by heart puncture into pre-chilled microtainer tubes containing EDTA. Blood samples were immediately put on ice prior to centrifugation. Plasma was prepared by centrifugation for 10 minutes at approximately 3000×g at +4° C. within 20 minutes from sampling. After blood sampling, mice were terminated. Aβ40 and Aβ42 levels in plasma were analyzed by commercial ELISA kit obtained from Biosource and Innogenetics, respectively.

A short description of data set [4]: Plasma exposure (Example 23). Format: in vivo, APPSWE-transgenic mice. To be noted: for Mean plasma exposure: 1.5 hours; for Plasma exposure: 3 hours. As for the experimental part:
as §1, §2
The concentrations of Fc-Nep in plasma and in the formulations were assayed according to the procedures described in Example 20. The exposure in plasma was analysed in samples from non-treated animals (blank) and in samples from animals treated with M550426.

Data set [5] is described as follows: Pharmacokinetics of Fc-Nep and in-house produced Neprilysin, single i.v. dose (Example 27). The data set is classed as in vivo. To be noted: mice, single i.v. dose 10 or 50 nmol enzyme/kg (1 and 5 mg/kg). As for the experimental part:
The Fc-Nep fusion protein was developed to improve the pharmacokinetic entities of neprilysin with the specific aims to reduce clearance and improve half-life. To test this we have administrated a single i.v. dose of 10 or 50 nmol enzyme/kg body weight neprilysin (Nep) or Fc-Nep (1 and 5 mg/kg) to mice. At set times the dose blood samples were drawn from the tail vein or by heart puncture at termination. Upon sampling into tubes containing EDTA the aliquots were put on ice. Plasma was prepared by centrifugation within 15 minutes of sampling (typically 1500 g at 4° C. for 10 min) and immediately frozen. Plasma concentrations of Nep and Fc-Nep were determined via immunoassays using either anti-Nep for Nep or anti-human IgG for Fc-Nep as capture antibodies while both substances were detected via an anti-Nep antibody. Pharmacokinetic parameters are calculated using a software package (WinNonlin, Pharsight Corporation, USA) and in this example experiment the calculated half-life had increased from about 1 day for Nep to about 2.5 weeks for Fc-Nep.

Data set [6] concerns amyloid β 1-40. In words: Degradation of Aβ 1-40 in human plasma pool (Example 28). The conditions noted are these: room temperature, 1 hour. The data set is classed as biochemical. As for the experimental part: (§3) Blood from twelve individuals (6 females and 6 males) were collected into pre-chilled heparin-plasma tubes at the healthcare centre (AstraZeneca) at three different time points. Plasma was prepared by centrifugation at 2500×g for 20 min at 4° C. Plasma samples were collected and transferred to pre-chilled polypropylene tubes and immediately frozen and stored at −70° C. prior to use. Plasma was thawed and pooled from 12 individuals just before the experiment. Aβ 1-40 and 1-42 in plasma pool was degraded by human Fc-Nep or mouse Fc-Nep with corresponding vehicles (50 mM Tris-HCl, 150 mM NaCl pH 7.5). The following final concentrations of the Fc-Nep constructs were used, 100, 32, 10, 3.2, 1, 0.3, 0.1 and […] and the degradation occurred at room temperature for 1 hour while shaking on an orbital shaker. The enzymatic reaction was stopped by adding Phosphoramidone (10 μM final concentration). Concentration of amyloid β 1-40 in human plasma pool was measured using ELISA kit (Biosource; KHB3481) according to the manufacturers instructions.

Data set [7] relates to Aβ 1-42. Briefly: Degradation of Aβ 1-42 in human plasma pool (Example 28). The data set is classed as biochemical. The conditions noted are these: room temperature, 1 hour. As for the experimental part:
as §3
A final concentration of 4.7 mM EDTA was added to the tubes before the concentration of Aβ42 was analyzed using ELISA kit Innotest® β-Amyloid1-42 (Innogenetics, lot#177462, ref#80177) according to the manufacturers instructions.

The mark [8] stands for this setting: highest concentration 100 μg/ml.

B1: Fc-Neprilysin: extracellular domain of human Neprilysin fused to the human IgG2 Fc domain (including hinge), Fc at N-terminus; SEQ ID NO 11 (protein)
chain: ERKCCVECPPCPAPPVAGPSVFLFPPKPKDTLMISRTPEVTCVVVDVSHEDPEVQFNWYVDGVEVHNAKTKPREEQFNSTFRVVSVLTVVHQDWLNGKEYKCKVSNKGLPAPIEKTISKTKGQPREPQVYTLPPSREEMTKNQVSLTCLVKGFYPSDIAVEWESNGQPENNYKTTPPMLDSDGSFFLYSKLTVDKSRWQQGNVFSCSVMHEALHNHYTQKSLSLSPGKYDDGICKSSDCIKSAARLIQNMDATTEPCTDFFKYACGGWLKRNVIPETSSRYGNFDILRDELEVVLKDVLQEPKTEDIVAVQKAKALYRSCINESAIDSRGGEPLLKLLPDIYGWPVATENWEQKYGASWTAEKAIAQLNSKYGKKVLINLFVGTDDKNSVNHVIHIDQPRLGLPSRDYYECTGIYKEACTAYVDFMISVARLIRQEERLPIDENQLALEMNKVMELEKEIANATAKPEDRNDPMLLYNKMTLAQIQNNFSLEINGKPFSWLNFTNEIMSTVNISITNEEDVVVYAPEYLTKLKPILTKYSARDLQNLMSWRFIMDLVSSLSRTYKESRNAFRKALYGTTSETATWRRCANYVNGNMENAVGRLYVEAAFAGESKHVVEDLIAQIREVFIQTLDDLTWMDAETKKRAEEKALAIKERIGYPDDIVSNDNKLNNEYLELNYKEDEYFENIIQNLKFSQSKQLKKLREKVDKDEWISGAAVVNAFYSSGRNQIVFPAGILQPPFFSAQQSNSLNYGGIGMVIGHEITHGFDDNGRNFNKDGDLVDWWTQQSASNFKEQSQCMVYQYGNFSWDLAGGQHLNGINTLGENIADNGGLGQAYRAYQNYIKKNGEEKLLPGLDLNHKQLFFLNFAQVWCGTYRPEYAVNSIKTDVHSPGNFRIIGTLQNSAEFSEAFHCRKNSYMNPEKKCRVW
For orientation: EC50 means the concentration needed to bring the measured effect to its halfway point. For B1, the “Amyloid β 1-40 peptide degraded” value came to 50% in data set [1] (batch 1) and 42% in data set [1] (batch 2). The calculated half-life entry was “about 20 hours” in data set [2] and “about 2.5 weeks” in data set [5]. Moreover, the “Change in plasma Aβ42” value in data set [3] (1 mg/kg i.v., 1.5 hours) was “No significant change”; in data set [3] (any of the doses (1 and 5 mg/kg), 3 hours) it was “No significant changes”. The “Reduction of Aβ42 in plasma compared to vehicle” value in data set [3] (5 mg/kg i.v., 1.5 hours, P<0.05) is “approximately 20%”. Further, the figures for the Mean plasma exposure in data set [4] (1 mg/kg i.v.) and in data set [4] (5 mg/kg i.v.) were 9.8 µg/mL and 33.6 µg/mL, respectively. In addition, the Plasma exposure in data set [4] (1 mg/kg i.v.) was determined as 7.6 µg/mL; in data set [4] (5 mg/kg i.v.), 27.3 µg/mL. The “Degradation of amyloid β 1-40 compared to plasma without treatment” value in data set [6] (setting [8]) is recorded as 66%. The 50% effective concentration (EC50) was determined as 580 nM in data set [6] and 250 nM in data set [7]. Moreover, the “Degradation of Aβ 1-42 compared to plasma without treatment” value in data set [7] (setting [8]) amounted to 28%.
